Measurements reported in patent US20090214489A1 (published 2009).
Where no end group is shown, it is not given here.

T1: full length human TPO-R on transfected Ba/F3 cells (human, UniProt P40238 26-635)
T1 sequence (looked up): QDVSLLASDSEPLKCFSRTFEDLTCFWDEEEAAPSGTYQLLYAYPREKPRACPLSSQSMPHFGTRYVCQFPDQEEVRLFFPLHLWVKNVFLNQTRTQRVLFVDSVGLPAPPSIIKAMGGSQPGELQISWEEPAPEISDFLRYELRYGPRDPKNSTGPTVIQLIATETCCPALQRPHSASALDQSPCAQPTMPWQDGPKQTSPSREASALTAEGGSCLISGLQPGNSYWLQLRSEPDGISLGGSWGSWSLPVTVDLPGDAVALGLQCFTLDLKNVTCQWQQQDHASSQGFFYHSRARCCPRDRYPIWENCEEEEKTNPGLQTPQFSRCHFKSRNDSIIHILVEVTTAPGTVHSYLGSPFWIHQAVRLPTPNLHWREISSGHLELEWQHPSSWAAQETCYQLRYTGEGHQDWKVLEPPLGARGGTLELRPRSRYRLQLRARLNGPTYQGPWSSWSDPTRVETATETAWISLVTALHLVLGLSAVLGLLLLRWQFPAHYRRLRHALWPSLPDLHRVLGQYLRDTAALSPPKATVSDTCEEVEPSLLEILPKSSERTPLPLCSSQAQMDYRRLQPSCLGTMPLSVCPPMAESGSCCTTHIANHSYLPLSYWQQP


How the values were obtained:
[1] = target: murine TPO receptor on Balb/C mouse marrow cells (mouse) (UniProt Q08351); experiment: cell-based or functional assay
[2] = target: T1, full length human TPO-R on transfected …; experiment: cell-based or functional assay

Row | Molecule | activity (assay not given) [2] | further results
1 | rhuTPO (from UniProt P40225 22-353) (ligand) | – | colonies of 3-5 large cells, mouse marrow in methylcellulose, 1 nM TPO, #1-1 [1]: 15 colonies; colonies of 3-5 large cells, mouse marrow in methylcellulose, 1 nM TPO, #1-2 [1]: 12 colonies; colonies of 3-5 large cells, mouse marrow in methylcellulose, 1 nM TPO, #2-1 [1]: 16 colonies; colonies of 3-5 large cells, mouse marrow in methylcellulose, 1 nM TPO, #2-2 [1]: 13 colonies; colonies of 6-12 large cells, mouse marrow in methylcellulose, 1 nM TPO, #1-1 [1]: 6 colonies; colonies of 6-12 large cells, mouse marrow in methylcellulose, 1 nM TPO, #1-2 [1]: 1 colonies; colonies of 6-12 large cells, mouse marrow in methylcellulose, 1 nM TPO, #2-1 [1]: 8 colonies; colonies of 6-12 large cells, mouse marrow in methylcellulose, 1 nM TPO, #2-2 [1]: 3 colonies
2 | CNRSQLLAAC (not fully specified; cysteine pairing not given here) [Table 8 compound, drawing CHEM-US-00046] | > 10 µm | –
3 | CQRADLINFC (not fully specified; cysteine pairing not given here) [Table 8 compound, drawing CHEM-US-00048] | > 10 µm | –
4 | CLTGPFVTQWLYEC (not fully specified; cysteine pairing not given here) [Table 8 compound, drawing CHEM-US-00052] | > 10 µm | –
5 | CLLSEFLAGQQC (not fully specified; cysteine pairing not given here) [Table 8 compound, drawing CHEM-US-00049] | > 10 µm | –
6 | CTRAQFLKGC (not fully specified; cysteine pairing not given here) [Table 8 compound, drawing CHEM-US-00044] | > 10 µm | –
7 | CNINQLRSIC (not fully specified; cysteine pairing not given here) [Table 8 compound, drawing CHEM-US-00045] | > 10 µm | –
8 | CTLGQWLQMGMC (not fully specified; cysteine pairing not given here) [Table 8 compound, drawing CHEM-US-00051] | > 10 µm | –
9 | CTSTQWLLAC (not fully specified; cysteine pairing not given here) [Table 8 compound, drawing CHEM-US-00047] | > 10 µm | –
10 | CGTEGPTLSTWLDC (not fully specified; cysteine pairing not given here) [Table 8 compound, drawing CHEM-US-00054] | > 10 µm | –
11 | CTLREFLDPTTAVC (not fully specified; cysteine pairing not given here) [Table 8 compound, drawing CHEM-US-00053] | > 10 µm | –

Second part, led by results:

Row | activity (assay not given) [2] | Molecule | further results
12 | > 10 µm | CSLKEFLHSGLMQC (not fully specified; cysteine pairing not given here) [Table 8 compound, drawing CHEM-US-00056] | –
13 | > 10 µm | CTLKEWLVSHEVWC (not fully specified; cysteine pairing not given here) [Table 8 compound, drawing CHEM-US-00058] | –
14 | > 10 µm | CTLAEFLASGVEQC (not fully specified; cysteine pairing not given here) [Table 8 compound, drawing CHEM-US-00057] | –
15 | > 10 µm | CELVGPSLMSWLTC (not fully specified; cysteine pairing not given here) [Table 8 compound, drawing CHEM-US-00055] | –
16 | > 10 µm | REGPTLRQWM (not fully specified) [Table 8 compound, drawing CHEM-US-00060] | –
17 | > 10 µm | REGPTLRQWLMSRS (not fully specified) [Table 8 compound, drawing CHEM-US-00061] | –
